Test results as given in the supplement of paper PMC7877785.
± gives the uncertainty stated by the source.

Test: self-splicing fitness, log relative to wild type (ln ratio); higher = more splicing; Tetrahymena group I intron in knt gene, E. coli kanamycin selection, DiMSum; sequences stand for … in CUCUCU…GGAGGGAAAAGUUAUCAGGCAUGCACCUGGUAGCUAGUCUUUAAACCAAUAGAUUGCAUCGGUUUAAAAGGCAAGACCGUCAAAUUGCGGGAAAGGGGUCAACAGCCGUUCAGUACCAAGUCUCAGGGGAAACUUUGAGAUGGCCUUGCAAAGGGUAUGGUAAUAAGCUGACGGACAUGGUCCUAACCACGCAGCCAAGUCCUAAGUCAACAGAUCUUCUGUUGAUAUGGAUGCAGUUCACAGACUAAAUGUCGGUCGGGGAAGAUGUAUUCUUCUCAUAAGAUAUAGUCGGACCUCUCCUUAAUGGGAGCUAGCGGAUGAAGUGAUGCAACACUGGAGCCGCUGGGAACUAAUUUGUAUGCGAAAGUAUAUUGAUUAGUUUUGGAGUACUCGUGGUCG
In short: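 Six replicate transformations of E. coli BL21(DE3) with a pET-22b(+) library were grown overnight at 37°C or 30°C. The library randomised all eight P1ex-region intron nucleotides, the intron lying in the knt kanamycin-resistance gene, and plates were LB agar with or without 25 μg/mL kanamycin plus 100 μg/mL carbenicillin, 50 μM IPTG and 0.2% rhamnose. Pooled colonies were amplicon-sequenced on an Illumina HiSeq 2500, and fitness is the DiMSum error-weighted combination of wild-type-normalised replicate fold changes, kanamycin versus none.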

Sequence	self-splicing fitness (ln) (30 °C)	self-splicing fitness (ln) (37 °C)
UUAAAGCAAUAUUACGUGUG	-0.972 ± 0.045	-0.4 ± 0.06
UUAAAGCAAUAUUACGUUGU	-3.19 ± 0.13	-1.4 ± 0.13
UUAAAGCAAUAUUACGUUUG	-2.18 ± 0.087	-0.699 ± 0.093
UUACAGCAAUAUUACGAAAA	-2.35 ± 0.17	-0.806 ± 0.14
UUACAGCAAUAUUACGAAGG	-3.54 ± 0.31	-1.3 ± 0.23
UUACAGCAAUAUUACGACGC	0.421 ± 0.26	-1.47 ± 0.36
UUACAGCAAUAUUACGACUA	0.0835 ± 0.1	0.256 ± 0.12
UUACAGCAAUAUUACGACUG	-1.26 ± 0.08	-1.81 ± 0.12
UUACAGCAAUAUUACGAGAG	-1.48 ± 0.11	-2.4 ± 0.15
UUACAGCAAUAUUACGAGUU	-4.21 ± 0.21	-2.18 ± 0.14
UUACAGCAAUAUUACGAUCA	-0.398 ± 0.13	-0.133 ± 0.17
UUACAGCAAUAUUACGCAGA	-1.84 ± 0.14	-0.823 ± 0.12
UUACAGCAAUAUUACGCUCG	0.107 ± 0.086	0.283 ± 0.11
UUACAGCAAUAUUACGGCUC	-1.76 ± 0.16	-0.974 ± 0.16
UUACAGCAAUAUUACGGGAA	-1.78 ± 0.086	-0.461 ± 0.084
UUACAGCAAUAUUACGGGAC	-4.47 ± 0.33	-2.07 ± 0.25
UUACAGCAAUAUUACGGUCG	0.503 ± 0.065	0.571 ± 0.087
UUACAGCAAUAUUACGGUGC	-3.23 ± 0.21	-1.92 ± 0.17
UUACAGCAAUAUUACGUAGC	-3.65 ± 0.3	-2.92 ± 0.27
UUACAGCAAUAUUACGUGAG	-0.626 ± 0.055	0.12 ± 0.092
UUACAGCAAUAUUACGUGCA	-1.27 ± 0.055	-0.148 ± 0.063
UUACAGCAAUAUUACGUGGG	-2.85 ± 0.11	-2.43 ± 0.13

Sequence	self-splicing fitness (ln) (30 °C)	self-splicing fitness (ln) (37 °C)
UUACAGCAAUAUUACGUGUG	-1.72 ± 0.063	0.0664 ± 0.077
UUACAGCAAUAUUACGUUUG	-1.54 ± 0.074	-1.14 ± 0.094
UUAGAGCAAUAUUACGAUAC	-2.36 ± 0.36	
UUAGAGCAAUAUUACGAUUG	-1.95 ± 0.11	-0.556 ± 0.14
UUAGAGCAAUAUUACGCAAG	-1.18 ± 0.14	-0.488 ± 0.22
UUAGAGCAAUAUUACGCACG	-0.444 ± 0.17	-0.183 ± 0.18
UUAGAGCAAUAUUACGCUCG	-1.98 ± 0.23	
UUAGAGCAAUAUUACGCUUC	-2.81 ± 0.32	
UUAGAGCAAUAUUACGGCCC	-3.84 ± 0.36	-1.52 ± 0.32
UUAGAGCAAUAUUACGGUCC	-2.67 ± 0.42	
UUAGAGCAAUAUUACGGUGA	-0.868 ± 0.067	-0.176 ± 0.08
UUAGAGCAAUAUUACGGUUG	-1.98 ± 0.15	-1.16 ± 0.15
UUAGAGCAAUAUUACGUAGA	-2.18 ± 0.17	-1.41 ± 0.19
UUAGAGCAAUAUUACGUCGG	-1.11 ± 0.12	-0.455 ± 0.14
UUAUAGCAAUAUUACGAAAA	-1.95 ± 0.39	-1.31 ± 0.28
UUAUAGCAAUAUUACGAGAU	-3.27 ± 0.31	-3.38 ± 0.39
UUAUAGCAAUAUUACGAGUA	-1.68 ± 0.38	-1.09 ± 0.33
UUAUAGCAAUAUUACGAUCG	-0.934 ± 0.12	-0.581 ± 0.14
UUAUAGCAAUAUUACGCAAU	-2.86 ± 0.3	-0.556 ± 0.23
UUAUAGCAAUAUUACGCAUU	-3.19 ± 0.23	-2.72 ± 0.2
UUAUAGCAAUAUUACGCCCA	-1.57 ± 0.22	-0.787 ± 0.26
